Experimental data as given in the supplement of paper PMC7125110.
Fewer inactive variants are shown than the library holds.

B1: glmS ribozyme (parent)
chain: AUAAAAGCGCCAGAACUACAGAAAUGUAGUUGACGAGGAGGAGGUUUAUCGAAUUUUCGGCGGAUGCCUCCAAA

Tests used:
Conditions in all cases: with glucosamine-6-phosphate
[1] = variants of: B1; assay: self-cleavage kobs at 40 uM GlcN6P; higher = faster cleavage; RNA array
Procedure, shortened: (§1)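 On sequenced MiSeq chips, barcoded ribozyme variants were made in situ by E. coli RNA polymerase and followed at 37 °C through a hybridised Cy3 probe. Glucosamine-6-phosphate was flowed in at 40 μM to 10 mM in HEPES/KCl/Mg(OAc)2 buffer. Exponential fits to normalised per-tile medians gave kobs, and weighted Michaelis–Menten fits gave kcat and KM.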

[2] = variants of: B1; assay: self-cleavage kobs at 160 uM GlcN6P; higher = faster cleavage; RNA array
Procedure, shortened: as §1

[3] = variants of: B1; assay: self-cleavage kobs at 640 uM GlcN6P; higher = faster cleavage; RNA array
Procedure, shortened: as §1

[4] = variants of: B1; assay: self-cleavage kobs at 2500 uM GlcN6P; higher = faster cleavage; RNA array
Procedure, shortened: as §1

[5] = variants of: B1; assay: self-cleavage kobs at 10000 uM GlcN6P; higher = faster cleavage; RNA array
Procedure, shortened: as §1

AUAAAACCGCCAGAACUACAGAAAUGUAGUUGACGAGGAGGAGGUUUAUCGAAUUUUCGGCGGAUGCCUACAAA
< 1e-05 s⁻¹: self-cleavage kobs at 40 uM GlcN6P [1] | self-cleavage kobs at 160 uM GlcN6P [2] | self-cleavage kobs at 640 uM GlcN6P [3] | self-cleavage kobs at 2500 uM GlcN6P [4] | self-cleavage kobs at 10000 uM GlcN6P [5]

AUAAAAACGCCAGAACUACAGAAAUGUAGUUGACGAGGAGGAGGUUUAUCGAAUUAUCGGCGGAUGCCUCCAAA
< 1e-05 s⁻¹: self-cleavage kobs at 40 uM GlcN6P [1] | self-cleavage kobs at 160 uM GlcN6P [2] | self-cleavage kobs at 640 uM GlcN6P [3]

AUAAAAACGCCAGAACUACAGAAAUGUAGUUGACGAGGAGGAGGUUUAUCGAAUCUUCGGCGGAUGCCUCCAAA
< 1e-05 s⁻¹: self-cleavage kobs at 40 uM GlcN6P [1] | self-cleavage kobs at 160 uM GlcN6P [2] | self-cleavage kobs at 640 uM GlcN6P [3]

AUAAAAACGCCAGAACUACAGAAAUGUAGUUGACGAGGAGAAGGCUUAACGAAUUUUCGGCGGAUGCCUCCAAA
< 1e-05 s⁻¹: self-cleavage kobs at 40 uM GlcN6P [1]

AUAAAAACGCCAGAACUACAGAAAUGUAGGUGACGAGGAGCAGGUUUAUCGAAUUUUGGGCGGAUACCUCCAAA
< 1e-05 s⁻¹: self-cleavage kobs at 40 uM GlcN6P [1]

AUAAAACCGCUAGAACUACAGAAAUGUAGUUGACGAGGAGGAGGUUUAUCGAAUUUUCGGAGGAUGCCUGCAAA
< 1e-05 s⁻¹: self-cleavage kobs at 40 uM GlcN6P [1] | self-cleavage kobs at 2500 uM GlcN6P [4]

AUAAAAACGCCAGAACUACAGAAAUGUAGUUGACGAGGAGGAGGUUUAUCUAAUUUUCGGCGGAUGCCUCCAAA
< 1e-05 s⁻¹: self-cleavage kobs at 40 uM GlcN6P [1] | self-cleavage kobs at 160 uM GlcN6P [2] | self-cleavage kobs at 640 uM GlcN6P [3] | self-cleavage kobs at 2500 uM GlcN6P [4]

AUAAAAACGCCAGAACUACAGAAAUGUAGUUGACCAGGAGGAGGUUUAUCGAAUUUUCAGCGGAUGGCUCCAAA
< 1e-05 s⁻¹: self-cleavage kobs at 40 uM GlcN6P [1] | self-cleavage kobs at 160 uM GlcN6P [2] | self-cleavage kobs at 640 uM GlcN6P [3] | self-cleavage kobs at 2500 uM GlcN6P [4]

AUAAAACCGCCAGAACUACAGAAAUGUAGUUGACGAGGAGGAGGUUUAUUGAAUUUUCGGCGGAUGCCUCCAAA
< 1e-05 s⁻¹: self-cleavage kobs at 40 uM GlcN6P [1] | self-cleavage kobs at 160 uM GlcN6P [2] | self-cleavage kobs at 640 uM GlcN6P [3] | self-cleavage kobs at 2500 uM GlcN6P [4]

AUAAAACCGCCAGAACUACAGAAAUGUAGUUGACGAGGAGGAGGUUUAUCGUAUUUUCGGCGGAUGCCUCCAAA
< 1e-05 s⁻¹: self-cleavage kobs at 40 uM GlcN6P [1] | self-cleavage kobs at 160 uM GlcN6P [2] | self-cleavage kobs at 640 uM GlcN6P [3] | self-cleavage kobs at 2500 uM GlcN6P [4] | self-cleavage kobs at 10000 uM GlcN6P [5]

AUAAAACCGCCAGAACUACAGAAAUGUAGUUGACGAGGAGGAGGUUUUUCGAAUUUUCGGCGGAUGCCUCCAAA
< 1e-05 s⁻¹: self-cleavage kobs at 40 uM GlcN6P [1] | self-cleavage kobs at 160 uM GlcN6P [2] | self-cleavage kobs at 2500 uM GlcN6P [4] | self-cleavage kobs at 10000 uM GlcN6P [5]

AUAAAAACGCCAGAACUACAGAAAUGUAGUUGACGAGGAGAAGGUUUAUCGAAUUUUCGGCGGAUGCCUCCAAA
< 1e-05 s⁻¹: self-cleavage kobs at 40 uM GlcN6P [1] | self-cleavage kobs at 160 uM GlcN6P [2] | self-cleavage kobs at 640 uM GlcN6P [3] | self-cleavage kobs at 2500 uM GlcN6P [4] | self-cleavage kobs at 10000 uM GlcN6P [5]

AUAAAACCGCCAGAGCUACAGAAAUGUAGUUGACGUGGAGGAGGUUUAUCGAAUUUUCGGCGGAUGCCUCCAAA
< 1e-05 s⁻¹: self-cleavage kobs at 40 uM GlcN6P [1] | self-cleavage kobs at 640 uM GlcN6P [3] | self-cleavage kobs at 10000 uM GlcN6P [5]

AUAAAAACGCCAGAACUACAGAAAUGUAGUUGACGAGGAGGAGGUGUAUCGAAUUUUCGGCGGAUGCCUCCAAA
< 1e-05 s⁻¹: self-cleavage kobs at 40 uM GlcN6P [1] | self-cleavage kobs at 160 uM GlcN6P [2] | self-cleavage kobs at 640 uM GlcN6P [3]

AUAAAACCGCCAGAACUACAGAAAUGUAGUUGGCGAGGAGGAGGUUUAUCGAUUUUUCGGCGGGUGCCUCCAAA
< 1e-05 s⁻¹: self-cleavage kobs at 40 uM GlcN6P [1] | self-cleavage kobs at 640 uM GlcN6P [3]

AUAAAAACGCCAGAACUACAGAAAUGUAGUUGACGACGAGGUGGUUUAUCGAAUUUUCGGCGGAUGCCUCCAAA
< 1e-05 s⁻¹: self-cleavage kobs at 40 uM GlcN6P [1] | self-cleavage kobs at 640 uM GlcN6P [3] | self-cleavage kobs at 2500 uM GlcN6P [4] | self-cleavage kobs at 10000 uM GlcN6P [5]

AUAAAACCGCCAGAACUACAGAAAUGUAGUUGACGAGGAGGAGGUUUUUCGAAUUUUCGGCGGAUGCCUGCAAA
< 1e-05 s⁻¹: self-cleavage kobs at 40 uM GlcN6P [1] | self-cleavage kobs at 10000 uM GlcN6P [5]

AUAAAACCGCCAGAACUACAGAAAUGUACUUGACUAGGAGGAGGUUUAUCGAAUUUUCGGCGGAUGCCUCCAAA
< 1e-05 s⁻¹: self-cleavage kobs at 40 uM GlcN6P [1] | self-cleavage kobs at 640 uM GlcN6P [3] | self-cleavage kobs at 10000 uM GlcN6P [5]

AUAAAACCGCCAGAACUACAGAAAUGUAGUUGACGAGGAGGAGGUUUAUCGAAUUUUCGGCGGAUGCCUCCAAA
< 1e-05 s⁻¹: self-cleavage kobs at 40 uM GlcN6P [1] | self-cleavage kobs at 160 uM GlcN6P [2] | self-cleavage kobs at 640 uM GlcN6P [3] | self-cleavage kobs at 2500 uM GlcN6P [4] | self-cleavage kobs at 10000 uM GlcN6P [5]

AUAAAACCGCCAGAACUACAGAAAUGUAGUUGACGAGGAAGAGGUUUAUCGAAUUUUCGGCGGAUGCCUCCAAA
< 1e-05 s⁻¹: self-cleavage kobs at 40 uM GlcN6P [1] | self-cleavage kobs at 160 uM GlcN6P [2] | self-cleavage kobs at 640 uM GlcN6P [3] | self-cleavage kobs at 2500 uM GlcN6P [4] | self-cleavage kobs at 10000 uM GlcN6P [5]

AUAAAACCGCUAGAACUACAGAAAUGUAAUUGACGAGGAAGUGGUUUAUCGAAUUUUCGGCUGAUGCCUCCAAA
< 1e-05 s⁻¹: self-cleavage kobs at 40 uM GlcN6P [1]

AUAAAACCGCCAGAACUACAGAAAUGUAGUUUAACAGGAGGAGGUUUAUCGAAUUUUCGGCGGAUGCCUCCAAA
< 1e-05 s⁻¹: self-cleavage kobs at 40 uM GlcN6P [1]

AUAAAAACGCCAGAACUACAGAAAUGUAGUUGACGAGGAGGAGGUUUAUCGAAUUUUCGGCGGAUUCCUCCAAA
< 1e-05 s⁻¹: self-cleavage kobs at 40 uM GlcN6P [1] | self-cleavage kobs at 160 uM GlcN6P [2] | self-cleavage kobs at 2500 uM GlcN6P [4] | self-cleavage kobs at 10000 uM GlcN6P [5]

AUAAAACCGCCAGAGCUACAGAAAUGUAGUUGACGAGGAGGAGGUUUAUCGAAUUUUCGGCGGAUGCCUCCAAA
< 1e-05 s⁻¹: self-cleavage kobs at 40 uM GlcN6P [1] | self-cleavage kobs at 10000 uM GlcN6P [5]
